From patent US20180163216, “GENE EXPRESSION IN BACTEROIDES” (Massachusetts Institute of Technology, published 2018) come the findings set out here.

Bounds are passed on as bounds.

One data set concerns T1, Int12 serine integrase.
T1 sequence: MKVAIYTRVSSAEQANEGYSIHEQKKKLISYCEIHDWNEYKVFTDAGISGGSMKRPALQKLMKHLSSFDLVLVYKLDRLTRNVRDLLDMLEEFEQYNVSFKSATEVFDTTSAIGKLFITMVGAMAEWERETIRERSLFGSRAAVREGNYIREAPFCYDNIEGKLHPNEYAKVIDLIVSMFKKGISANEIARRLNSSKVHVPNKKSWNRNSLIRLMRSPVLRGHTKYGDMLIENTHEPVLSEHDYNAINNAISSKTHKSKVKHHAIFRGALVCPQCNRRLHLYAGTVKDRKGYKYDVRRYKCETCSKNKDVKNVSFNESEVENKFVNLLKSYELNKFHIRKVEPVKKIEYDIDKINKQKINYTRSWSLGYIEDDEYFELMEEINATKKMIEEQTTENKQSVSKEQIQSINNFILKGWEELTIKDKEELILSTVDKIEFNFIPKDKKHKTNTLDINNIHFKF
Description: cell_activity. The conditions noted are these: flipping in <1 day in mouse gut with rhamnose; also inversion by PCR in vitro culture.

Data set [1] concerns RhaR (AraC/XylS-family activator) (Bacteroides thetaiotaomicron). Description: cell_activity. Particulars: printed 104-fold (10^4); rhamnose-induced NanoLuc; K=0.3 mM rhamnose, n=1.4.
Data set [2] addresses T2, LacIQ repressor (Escherichia coli, UniProt P03023 SEQ:5-363). Description: cell_activity; fold induction by IPTG; K=6 uM IPTG. Particulars: expressed from PBT1311 in B. thetaiotaomicron; chain copies: 4. The text has this: (§1) Next, an IPTG-inducible system was developed. Pairs of LacO1 operator sites were inserted in the strong PcfxA promoter in three locations: upstream of the −33 element (O1), between the −33 and −7 elements (O2) or just downstream of the transcription start site (O3) (FIGS. 7A-7B).

Data set [3] deals with T2, LacIQ repressor. Nature of the data set: cell_activity; fold induction by IPTG; K=86 uM IPTG. Particulars: expressed from PBT1311 in B. thetaiotaomicron; chain copies: 4.
From the text: as §1

T2 sequence (P03023 2-360): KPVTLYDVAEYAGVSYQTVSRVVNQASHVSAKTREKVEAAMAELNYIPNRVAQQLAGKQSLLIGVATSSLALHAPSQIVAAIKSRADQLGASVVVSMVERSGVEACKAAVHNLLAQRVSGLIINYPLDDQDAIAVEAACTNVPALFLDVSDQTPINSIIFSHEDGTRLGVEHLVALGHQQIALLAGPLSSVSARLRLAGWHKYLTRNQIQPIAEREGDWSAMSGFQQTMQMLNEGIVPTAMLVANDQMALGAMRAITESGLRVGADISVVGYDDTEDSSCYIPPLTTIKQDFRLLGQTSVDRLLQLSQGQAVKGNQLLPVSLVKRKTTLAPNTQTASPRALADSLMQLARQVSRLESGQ

Molecule Int12 attB/attP in memory array returned an activity in the data set on Int12 serine integrase of more than 90%. In data set [1], “TATTTCGGAGAAAACATGCATAAATCATGCTTTTTTTGCATAAAAAGTAAAATTTATACTGATGTAAGGTTTGGCTATGCAGATTTGTGTCAAAATGCACATCCTTTCTATCAAAATGCGTAAGGAAAAGGAGGAAGGAACCGCCTATCTTTGCAATGTAGGTAAATGGATACCTTAAATATATAGACAAAATACC (double strand) [PBT3763]” gave an activity of 10000 fold.

B1: PLacO23 (dsDNA)
DNA 1: TTACAAAGAAAATTCGACAAACTGTTATTTTTCTATCTATTTATTTGAATTGTGAGCGGATAACAATTACCTTTGTCGGCAATTGTGAGCGGATAACAATTAAATAAAGATATTCTCGTCAAACAAATATAAATAATATAAAC
DNA 2: GTTTATATTATTTATATTTGTTTGACGAGAATATCTTTATTTAATTGTTATCCGCTCACAATTGCCGACAAAGGTAATTGTTATCCGCTCACAATTCAAATAAATAGATAGAAAAATAACAGTTTGTCGAATTTTCTTTGTAA
In the data set with LacIQ repressor [2], B1 showed an activity of 22 fold.

B2: PLacO13 (dsDNA)
DNA 1: TTACAAAGAAAATTCGACAAACTGTTATTTTTCTATCTATTTAAATTGTGAGCGGATAACAATTTGGGTGGGAAACTTTAGTTATGTACCTTTGTCGGCAATTGTGAGCGGATAACAATTAAATAAAGATATTCTCGTCAAACAAATATAAATAATATAAAC
DNA 2: GTTTATATTATTTATATTTGTTTGACGAGAATATCTTTATTTAATTGTTATCCGCTCACAATTGCCGACAAAGGTACATAACTAAAGTTTCCCACCCAAATTGTTATCCGCTCACAATTTAAATAGATAGAAAAATAACAGTTTGTCGAATTTTCTTTGTAA
In the data set with LacIQ repressor [3], B2 yielded an activity of 8 fold.
